For data set [1], the target named is T1, AtPOT1a OB1 F65A (Arabidopsis thaliana, UniProt Q56Y52 1-158, F65A).
T1 sequence: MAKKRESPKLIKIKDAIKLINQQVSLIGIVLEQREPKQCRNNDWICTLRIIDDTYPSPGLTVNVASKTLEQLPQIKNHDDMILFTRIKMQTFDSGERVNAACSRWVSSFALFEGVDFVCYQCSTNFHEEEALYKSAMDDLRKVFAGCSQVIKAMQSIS
Briefly: EMSA. Background: Mobility shift assays separate free from complexed probe on a gel.

Data set [2] deals with T2, AtPOT1b OB1 V63F (Arabidopsis thaliana, UniProt Q6NKX5 1-159, V63F).
T2 sequence: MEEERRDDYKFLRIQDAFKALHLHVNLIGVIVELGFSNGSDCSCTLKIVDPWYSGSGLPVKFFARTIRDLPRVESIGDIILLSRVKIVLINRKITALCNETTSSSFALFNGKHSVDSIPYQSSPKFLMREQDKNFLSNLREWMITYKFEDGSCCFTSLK
Briefly: EMSA.

The target of data set [3] is T3, AtPOT1a OB1 (Arabidopsis thaliana, UniProt Q56Y52 1-158).
T3 sequence: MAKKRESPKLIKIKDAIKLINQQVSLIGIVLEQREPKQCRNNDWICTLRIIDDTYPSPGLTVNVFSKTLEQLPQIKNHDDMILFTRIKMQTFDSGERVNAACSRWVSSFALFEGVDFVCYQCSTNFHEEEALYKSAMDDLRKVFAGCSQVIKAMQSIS
As to the kind of experiment: EMSA.

The target in data set [4] is T4, AtPOT1b OB1 (Arabidopsis thaliana, UniProt Q6NKX5 1-159).
T4 sequence: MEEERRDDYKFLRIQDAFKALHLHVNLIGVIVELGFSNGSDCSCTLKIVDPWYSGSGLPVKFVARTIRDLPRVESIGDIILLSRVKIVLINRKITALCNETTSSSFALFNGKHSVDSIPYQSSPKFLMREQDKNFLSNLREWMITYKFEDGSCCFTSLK
As to the kind of experiment: EMSA.

Data set [5] has as its target T3, AtPOT1a OB1. Briefly: EMSA. This is another data set of the same source.
The target in data set [6] is T3, AtPOT1a OB1. Briefly: EMSA. This is another data set of the same source.
Data set [7] has as its target T3, AtPOT1a OB1. Briefly: competition.
Data set [8] has as its target T3, AtPOT1a OB1. As to the kind of experiment: EMSA. This is another data set of the same source.

Where two headings read alike, the source gives them in different places.

Experimental findings from paper PMC5175356 are described below.

The Kd is the constant that tells how readily two partners part at equilibrium. Read a low Kd as higher affinity.

B1: (TTTAGGG)5 (ssDNA)
DNA: TTTAGGGTTTAGGGTTTAGGGTTTAGGGTTTAGGG
B1: the binding result in data set [1] is recorded as “no binding”; in data set [2], “binds”; in data set [4], “no binding”. This molecule also displayed a Kd in data set [3] of 230 ± 30 nM.

B2: minimal binding site 11-mer (ssDNA)
DNA: TAGGGTTTAGG
With B2, in data set [5], the binding result was “binds”.

B3: TTTAGGG (ssDNA)
DNA: TTTAGGG
Turning to B3, the binding result in data set [6] is reported as “no binding”.

B4: (TTTAGGG)2 (ssDNA)
DNA: TTTAGGGTTTAGGG
The molecule B4 registered a Kd in data set [3] of roughly 1000 nM.

B5: NS DNA (ssDNA)
DNA: TTAATTAACCCGGGGATCCGGCTTGATCAACGAATGATCC
Consider B5, for which, in data set [7], the binding signal is 10 % reduction of binding.

B6: 12-mer telomere (ssDNA)
DNA: TTAGGGTTTAGG
B6: the binding result in data set [8] is recorded as “binds”.

B7: (UUUAGGG)5 (ssRNA)
RNA: UUUAGGGUUUAGGGUUUAGGGUUUAGGGUUUAGGG
Take B7: the binding signal in data set [7] was 10 % reduction of binding.
